{
  "source": "patent US20250073303A1",
  "about": "“TDP-43 Interference Peptides, Methods, and Uses Thereof” (The University of British Columbia, priority 2022, published 2025)",
  "key": {"[1]": {"system": "SH-SY5Y cells", "assay": "MTT assay of SH-SY5Y cells with ethacrynic acid challenge", "format": "cell-based, human", "conditions": "ethacrynic acid treatment compared with the control group", "method": "Cell treatment and peptide blocking assay: Ethacrynic acid (EA) (Sigma, Saint Louis, MO) was dissolved in dimethyl sulfoxide (DMSO) at a stock concentration of 100 mM. For SH-SY5Y cells and HEK-293 cells, ethacrynic acid (EA) was added to the culture medium at 1:1000 to reach a final concentration of 100 μM. The treatment was maintained for 24 hours. For mouse cortical neurons, mature cortical neurons of 14 days in vitro (DIV) were used for experiments. Ethacrynic acid (EA) was added to neurons at a concentration of 20 μM for 5 hours. For peptide treatment in cell culture, the peptides were dissolved in double distilled water at a stock concentration of 10 mM and stored at −80° C. The combination of peptides A, B, C and D at equal concentration of 5 μM for each peptide and 20 μM in total was added into cultures of SH-SY5Y cells or HEK-293 cells one hour before ethacrynic acid treatment or pcDNA3.1-FLAG-CK1δ1-317 transfection. […]\nMTT assay: The cell viability of SH-SY5Y cells after treatment of Ethacrynic acid (EA) was determined using the MTT assay (Sigma, Saint Louis, MO). Briefly, MTT solution was added to cells for 3-4 hours at 37° C. at the time when the cell viability was determined. […] On the second day, the plate was shaken for 15 minutes in the dark and absorbance at OD=595 nm was read using a plate reader (Envision 2103 Multilabel Reader, Perkin Elmer)."}, "[2]": {"molecular_target": "TDP-43 (Homo sapiens, UniProt Q13148)", "sequence (Q13148 whole entry, the tested form may be a part)": "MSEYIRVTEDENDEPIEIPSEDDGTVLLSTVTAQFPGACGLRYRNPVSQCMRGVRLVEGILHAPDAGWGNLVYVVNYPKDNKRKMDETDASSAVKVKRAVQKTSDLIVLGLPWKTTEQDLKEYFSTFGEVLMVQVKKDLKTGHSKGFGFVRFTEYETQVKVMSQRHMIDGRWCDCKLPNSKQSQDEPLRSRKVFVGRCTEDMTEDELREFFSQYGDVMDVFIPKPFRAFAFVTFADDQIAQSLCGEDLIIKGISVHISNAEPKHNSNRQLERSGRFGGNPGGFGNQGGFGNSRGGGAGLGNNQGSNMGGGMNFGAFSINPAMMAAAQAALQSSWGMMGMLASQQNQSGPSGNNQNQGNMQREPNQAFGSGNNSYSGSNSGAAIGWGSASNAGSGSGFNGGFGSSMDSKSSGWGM", "assay": "Peptide blocking of TDP-43 phosphorylation and aggregation in HEK293 cells overexpressing pcDNA3.1-FLAG-CK1δ1-317 (western blotting)", "format": "cell-based", "parameters": "Endogenous TDP-43 was highly phosphorylated by active CK-1δ (lacking its regulatory domain); endogenous in cells; host or cells: HEK293 cells transfected with pcDNA3.1-FLAG-CK1δ1-317", "conditions": "HEK293, CK1δ1-317 overexpression", "method": "Cell treatment and peptide blocking assay: Ethacrynic acid (EA) (Sigma, Saint Louis, MO) was dissolved in dimethyl sulfoxide (DMSO) at a stock concentration of 100 mM. For SH-SY5Y cells and HEK-293 cells, ethacrynic acid (EA) was added to the culture medium at 1:1000 to reach a final concentration of 100 μM. The treatment was maintained for 24 hours. For mouse cortical neurons, mature cortical neurons of 14 days in vitro (DIV) were used for experiments. Ethacrynic acid (EA) was added to neurons at a concentration of 20 μM for 5 hours. For peptide treatment in cell culture, the peptides were dissolved in double distilled water at a stock concentration of 10 mM and stored at −80° C. […] The primary cultured neurons were treated with peptide A, B, C and D mixture (equal concentration for each) at a final concentration of 5 μM and 10 μM.\nThe plasmids were transfected into HEK293 or SH-SY5Y cells using the Lipofectamine 2000 system. Before transfection, cells were plated at 80˜90% confluence and cultured in DMEM containing 10% fetal bovine serum (FBS). […]\nFractionation of cellular soluble and insoluble proteins: Cells or spinal cord tissue were harvested and lysed in 500 μl RIPA buffer [50 mM Tris-HCl pH 7.4; 150 mM NaCl; 1% NP-40; 0.5% Na-deoxycholate; 1 mM EDTA; 50 mM NaF; 1 mM PMSF and protease inhibitor] on ice. […] All the protein samples were further analyzed by Western immunoblotting. […]"}},
  "data": [
    {"molecule": "C=C(CC)C(=O)c1ccc(OCC(=O)O)c(Cl)c1Cl", "note": "[ethacrynic acid]", "values": [
      {"measurement": "cell death of SH-SY5Y cells", "setting": "[1]", "value": 69.97, "unit": "%"}
    ]},
    {"molecule": "ppTDP: peptide covering the T25 site and S403 site of TDP-43, with a linker sequence between the blocking sequences and a TAT sequence (YGRKKRRQRRRDGTVLLGGGGFGSSMDSKSSG)", "values": [
      {"measurement": "TDP-43 phosphorylation in both the soluble fraction and insoluble fraction", "setting": "[2]; 20 μM every 6 hours for a total of 48 hours", "value": "efficiently blocked"},
      {"measurement": "TDP-43 aggregation induced by CK1δ", "setting": "[2]; 40 μM every 6 hours for a total of 48 hours, compared with 20 μM", "value": "did not block TDP-43 aggregation induced by CK1δ more effectively"}
    ]}
  ]
}
